Source: patent publication US20190135915A1 (SYNTIMMUNE, published 2019)
“And” between values parts separate entries of the source, which are not always exact repeats. Identical values can stand only once.

Key:
[1] = molecular target: T1, FcRn (analyte in the Biacore T200 study) (human, UniProt P55899 24-297; P61769 21-119, limits assumed); experiment: SPR Biacore T200, antibody immobilized, FcRn analyte
T1 construct: also called human FcRn
Description: (§1) Antibodies were immobilized onto a Series S CM5 sensor chip surface using standard amine coupling chemistry and analyte (FcRn) flowed over the surface. A 2-fold dilution range was selected from 50-0.01 nM FcRn. The association phase of FcRn analyte was monitored for 450 seconds, and dissociation was initially measured for either 250 or 2500 seconds, at 40 μl/min Fc1 was a reference channel and was subtracted from other flow cells to correct for non-specific binding. […] Kinetic values are based on a 1:1 binding model (Table 5).

[2] = molecular target: T1, FcRn (analyte in the Biacore T200 study); experiment: SPR Biacore T200, antibody amine-coupled to CM5, FcRn analyte, 1:1 model; pH not stated
Description: as §1

[3] = molecular target: T2, monomeric His-tagged hFcRn (human, UniProt P55899 24-297; P61769 21-119, limits assumed); experiment: SPR Biacore 3000, antibody amine-coupled to CM5, His-tagged hFcRn analyte, pH 6.0, 25 C, 1:1 Langmuir
T2 construct: also called human FcRn; not shown: His tag
Description: (§2) The coupling was performed by injecting 2 μg/ml of each protein into 10 mM sodium acetate, pH 4.5 (GE Healthcare), using the amine coupling kit (GE Healthcare). HBS-P buffer pH 7.4 (0.01 M HEPES, 0.15 M NaCl, 0.005% surfactant P20) or phosphate buffer pH 6.0 (67 mM phosphate buffer, 0.15 M NaCl, 0.005% Tween 20) were used as running buffer and dilution buffer. […] All SPR experiments were conducted at 25° C. with a flow rate of 40 μl/min Binding data were zero-adjusted, and the reference cell value subtracted. The Langmuir 1:1 ligand binding model provided by the BIAevaluation software (version 4.1) was used to determine the binding kinetics. The closeness of the fit is described by the statistical value χ².

[4] = molecular target: T2, monomeric His-tagged hFcRn; experiment: SPR Biacore 3000, antibody amine-coupled to CM5, His-tagged hFcRn analyte, pH 7.4, 25 C, 1:1 Langmuir
Description: as §2
(§3) The kinetic rate constants were obtained using a simple first-order (1:1) Langmuir bimolecular interaction model. The kinetic values represent the average of duplicates. The χ² (chi-square) values represent the fit to the binding model used.

[5] = molecular target: T2, monomeric His-tagged hFcRn; experiment: SPR Biacore 3000, antibody amine-coupled to CM5, His-tagged hFcRn analyte, pH 6.0, 25 C, 1:1 Langmuir; pH 6.0
Description: as §2, §3

[6] = molecular target: T2, monomeric His-tagged hFcRn; experiment: SPR Biacore 3000, antibody amine-coupled to CM5, His-tagged hFcRn analyte, pH 7.4, 25 C, 1:1 Langmuir; pH 7.4
Description: as §2, §3

[7] = molecular target: T3, recombinant human FcRn (Sino Biological Inc. Cat. No. CT009-H08H) (human, UniProt P55899 24-297; P61769 21-119); experiment: competition ELISA, pH 6.0; competitor biotinylated parent murine antibody; captured recombinant human FcRn; HEK-expressed IgG4
T3 construct: also called immobilized FcRn
Description: (§4) The IgG4 antibodies were tested for antigen binding in a competition ELISA at pH 6.0 and pH 7.4. A Nunc Immuno MaxiSorp 96 well flat bottom microtitre plate (Fisher, cat. no. DIS-971-030J) was pre-coated with 1 μg/ml of an FcRn antibody specific for an IgG-binding epitope distinct from the albumin-binding region overnight at pH 7.4. The following day, 1 μg/ml recombinant human FcRn (Sino Biological Inc. cat. no. CT009-H08H) diluted in PBS pH 7.4 was added to the wells and incubated for 1 hour at 37° C. After washing the plates 3× with PBST pH 7.4, the plates were blocked with PBSM pH 7.4 for 1 hour at 37° C. From this point onwards, all wash and incubation steps were performed at the chosen assay pH (pH 6.0 or 7.4). […] The reaction was stopped with 3 M HCl, absorbance read at 450 nm on a Dynex Technologies MRX TC II plate reader and the binding curves plotted.

[8] = molecular target: T3, recombinant human FcRn (Sino Biological …); experiment: competition ELISA, pH 7.4; competitor biotinylated parent murine antibody; captured recombinant human FcRn; HEK-expressed IgG4
Description: as §4

[9] = molecular target: T3, recombinant human FcRn (Sino Biological …); experiment: competition ELISA, pH 6.0; competitor biotinylated parent murine antibody; captured recombinant human FcRn; HEK-expressed IgG4; remark: listed apart in the source
Description: as §4
(§5) NS0 produced humanized affinity matured IgGs were used in all assays other than G50_C10/Vκ3), which was purified from transiently expressing HEK cells.

[10] = molecular target: T3, recombinant human FcRn (Sino Biological …); experiment: competition ELISA, pH 7.4; competitor biotinylated parent murine antibody; captured recombinant human FcRn; HEK-expressed IgG4; remark: listed apart in the source
Description: as §4, §5

[11] = molecular target: T1, FcRn (analyte in the Biacore T200 study); experiment: SPR Biacore T200, antibody amine-coupled to CM5, FcRn analyte, 1:1 model; chip with the three best variants (repeat run, dissociation 4500 s per paragraph 156); pH not stated
Description: as §1

[12] = molecular target: T3, recombinant human FcRn (Sino Biological …); experiment: competition ELISA, pH 6.0: test IgG4 (from transient HEK per paragraph 152) titrated against fixed biotinylated murine parent antibody on recombinant human FcRn; streptavidin-HRP/TMB, OD450 [top panel]
Description: as §4, §5

[13] = molecular target: T3, recombinant human FcRn (Sino Biological …); experiment: competition ELISA, pH 7.4: test IgG4 (from transient HEK per paragraph 152) titrated against fixed biotinylated murine parent antibody on recombinant human FcRn; streptavidin-HRP/TMB, OD450 [top panel]
Description: as §4, §5

- fold improvement in affinity compared to the humanized parental, on average [1]: 50 fold
- koff [2]: ≤ 1e-05 s⁻¹ and 2.34e-05 s⁻¹
- kon [2]: 399000 M⁻¹ s⁻¹ and 298000 M⁻¹ s⁻¹
- Kd [3]: 0.4 nM
- koff [3]: 4.7e-05 s⁻¹
- Kd [4]: 0.00066 nM
- kon [4]: 120000 M⁻¹ s⁻¹
- kon [5]: 110000 M⁻¹ s⁻¹
- koff [6]: 8e-08 s⁻¹
- Average relative IC50 (relative to humanized parent) [7]: 0.9
- Average relative IC50 (relative to humanized parent) [8]: 0.7
- Average relative IC50 (relative to humanized parent) [9]: 0.89
- Average relative IC50 (relative to humanized parent) [10]: 0.54
- Kd [11]: 0.054 nM
- koff [11]: 1.54e-05 s⁻¹
- kon [11]: 283000 M⁻¹ s⁻¹
- IC50 (read off the curve) [12]: ~0.5 µg/mL
- IC50 (read off the curve) [13]: ~0.4 µg/mL
B1: G50_C10/Vκ3 (antibody, V domains shown)
VH: EVQLVESGGGLVKPGGSLKLSCAASGFTFSDYGMHWVRQAPGKGLEWVAYISSGSSTIYYADTVKGRFTISRDNAKNTLYLQMNSLRAEDTAMYYCARLESTTAVGDYWGQGTSVTVSS
VL: DIVMTQSPDSLSASVGDRVTITCKASQSVSNDVAWYQQKPGQPPKLLIYYASNRYTGVPDRFSGSGYGTDFTLTISSLQAEDVAVYFCQQDYSSLTFGQGTKLEIK
notes: Bivalent IgG4 with S241P, human kappa; also called SYNT002-16; G50_C10/Vκ3 (HEK)
